# How the values were obtained:
# Experiment in all cases: far-Western, overlay or dot blot
# [1] = target: p150^Glued subunit of dynactin (endogenous, band in total extracts) (UniProt Q14203)
# [2] = target: zw10 (endogenous, ~90-kD band) (UniProt O43264)
# [3] = target: recombinant IC-2C T89D mutant
# [4] = target: recombinant IC-2C T89E mutant
# Chain of UniProt O43264 (O43264 whole entry): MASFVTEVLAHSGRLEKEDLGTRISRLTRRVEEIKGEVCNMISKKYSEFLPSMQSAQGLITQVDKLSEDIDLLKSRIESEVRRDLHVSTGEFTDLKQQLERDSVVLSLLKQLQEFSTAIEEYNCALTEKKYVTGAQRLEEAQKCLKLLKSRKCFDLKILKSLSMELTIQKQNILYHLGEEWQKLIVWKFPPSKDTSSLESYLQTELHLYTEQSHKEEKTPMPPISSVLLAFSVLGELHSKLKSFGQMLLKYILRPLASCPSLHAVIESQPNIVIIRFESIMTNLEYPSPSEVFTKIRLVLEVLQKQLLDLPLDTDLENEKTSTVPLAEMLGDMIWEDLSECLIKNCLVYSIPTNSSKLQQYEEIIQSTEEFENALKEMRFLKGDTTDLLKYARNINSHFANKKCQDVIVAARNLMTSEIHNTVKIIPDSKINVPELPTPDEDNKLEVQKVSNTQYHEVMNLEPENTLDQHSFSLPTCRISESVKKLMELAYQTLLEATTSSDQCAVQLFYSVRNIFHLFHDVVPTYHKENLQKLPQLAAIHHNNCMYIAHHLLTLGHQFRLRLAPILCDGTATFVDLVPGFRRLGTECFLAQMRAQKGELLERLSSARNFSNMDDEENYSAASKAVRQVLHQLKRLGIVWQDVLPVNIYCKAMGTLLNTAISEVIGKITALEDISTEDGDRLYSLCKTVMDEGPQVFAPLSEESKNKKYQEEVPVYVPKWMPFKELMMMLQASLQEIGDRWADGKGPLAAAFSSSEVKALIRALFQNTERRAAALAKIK
# Chain of UniProt Q14203 (Q14203 whole entry): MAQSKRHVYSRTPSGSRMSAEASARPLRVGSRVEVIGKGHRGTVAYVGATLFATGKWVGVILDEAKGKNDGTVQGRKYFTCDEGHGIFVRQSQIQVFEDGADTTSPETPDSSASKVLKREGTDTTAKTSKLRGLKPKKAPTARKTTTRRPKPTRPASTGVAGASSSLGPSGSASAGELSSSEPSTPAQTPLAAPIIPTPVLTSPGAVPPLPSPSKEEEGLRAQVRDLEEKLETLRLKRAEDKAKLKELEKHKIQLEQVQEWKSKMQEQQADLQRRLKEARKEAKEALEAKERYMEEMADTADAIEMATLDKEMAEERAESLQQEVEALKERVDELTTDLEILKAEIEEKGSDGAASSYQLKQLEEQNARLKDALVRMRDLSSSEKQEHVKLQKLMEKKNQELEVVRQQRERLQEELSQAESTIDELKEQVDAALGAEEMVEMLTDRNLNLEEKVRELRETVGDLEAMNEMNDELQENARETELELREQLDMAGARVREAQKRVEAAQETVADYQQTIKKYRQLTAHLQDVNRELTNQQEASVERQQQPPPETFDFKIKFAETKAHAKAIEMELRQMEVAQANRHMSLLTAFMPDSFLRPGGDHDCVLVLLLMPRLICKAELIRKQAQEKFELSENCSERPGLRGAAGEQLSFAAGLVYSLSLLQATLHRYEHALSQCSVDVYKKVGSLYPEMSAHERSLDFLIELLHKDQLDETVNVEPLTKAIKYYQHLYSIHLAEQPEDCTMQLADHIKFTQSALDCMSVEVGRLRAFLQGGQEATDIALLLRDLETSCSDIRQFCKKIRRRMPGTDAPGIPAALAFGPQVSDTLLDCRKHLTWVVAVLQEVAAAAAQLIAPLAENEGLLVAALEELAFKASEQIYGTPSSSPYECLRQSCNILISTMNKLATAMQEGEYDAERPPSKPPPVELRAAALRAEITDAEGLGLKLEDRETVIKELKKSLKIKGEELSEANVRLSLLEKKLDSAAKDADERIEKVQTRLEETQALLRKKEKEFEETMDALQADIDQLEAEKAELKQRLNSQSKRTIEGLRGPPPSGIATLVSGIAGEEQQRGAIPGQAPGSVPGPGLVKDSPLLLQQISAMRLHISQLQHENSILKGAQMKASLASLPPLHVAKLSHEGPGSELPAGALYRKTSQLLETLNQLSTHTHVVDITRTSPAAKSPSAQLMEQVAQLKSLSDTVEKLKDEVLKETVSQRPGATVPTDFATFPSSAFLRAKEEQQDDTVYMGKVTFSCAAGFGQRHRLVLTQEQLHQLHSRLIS
overlay signal as percent of the endogenous IC band [1] [%],overlay signal as percent of the endogenous IC band [2] [%],percent increase in binding against dephospho-ICs [2] [%],fold reduction in binding against the wild type [3] [fold],fold reduction in binding against the wild type [4] [fold],Substance
55.4,96.2,100,–,–,recombinant IC-2C fragment (residues 1-284) phosphorylated in vitro (phospho-ICs) (domain or fragment)
83,31.1,–,–,–,recombinant IC-2C fragment spanning residues 1-284 (dephosphorylated ICs) (domain or fragment)
–,–,–,4,4,recombinant p150^Glued fragment spanning residues 1-811 (from UniProt P28023 1-811) (domain or fragment)

# Source: paper PMC2592828
